Laboratory results taken from patent publication US6635450.

Tests used:
[1] = test system: Kip1 (28-79), 52-amino acid peptide with a C-terminal hexahistidine tag
[2] = test system: recombinant mouse Kip1 with a C-terminal hexahistidine sequence (expressed in BL21(DE3) bacteria from pET21a)
[3] = target: His-cyclin E-Cdk2 complex (baculoviral human cyclin E with N-terminal hexahistidine, in complex with baculoviral Cdk2) (human) (UniProt P24864); experiment: cell-based or functional assay
[4] = target: human cyclin A-Cdk2 complex (baculovirally expressed) (human) (UniProt P20248); experiment: cell-based or functional assay

Sequence of recombinant mouse Kip1 with a C-terminal hexahistidine sequence (expressed in BL21(DE3) bacteria from pET21a) (chain, as listed by the source): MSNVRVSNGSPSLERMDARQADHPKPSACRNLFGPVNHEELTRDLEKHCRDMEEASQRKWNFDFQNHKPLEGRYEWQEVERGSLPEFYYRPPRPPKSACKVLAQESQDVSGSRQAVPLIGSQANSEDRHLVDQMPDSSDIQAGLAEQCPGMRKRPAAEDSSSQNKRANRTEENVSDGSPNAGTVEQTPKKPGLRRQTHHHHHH
Sequence of Kip1 (28-79), 52-amino acid peptide with a C-terminal hexahistidine tag (chain, as listed by the source): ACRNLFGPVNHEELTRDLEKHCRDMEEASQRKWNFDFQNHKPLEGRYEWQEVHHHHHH

Substance | Rb phosphorylation [1] | Rb kinase activity (phosphorylation of a GST-Rb fusion product) [2] | cyclin E-associated histone H1 kinase activity and Thr160-phosphorylated form of Cdk2 on western blot [2] | histone H1 kinase activity, half-maximal inhibition [3] | histone H1 kinase activity, concentration for complete inhibition [4]
His-cyclin E-Cdk2 complex (baculoviral human cyclin E with N-terminal hexahistidine, in complex with baculoviral Cdk2) | inhibited cyclin E-Cdk2 or cyclin D2:Cdk4 less effectively | Addition of Kip1 to cyclin E-Cdk2, cyclin A-Cdk2 or cyclin D2-Cdk4 complexes inhibited their ability to phosphorylate a GST-Rb fusion product | – | – | –
cyclin E-Cdk2 complexes assembled in A549 cell extracts (added histidine-tagged baculoviral cyclin E with the endogenous Cdk2) | – | – | Addition of histidine-tagged Kip1 to the cell extracts markedly decreased the level of cyclin E-associated kinase activity | – | –
human cyclin A-Cdk2 complex (baculovirally expressed) | This peptide inhibited Rb phosphorylation by cyclin A-Cdk2 with a potency that was close to that of full length Kip1 | Addition of Kip1 to cyclin E-Cdk2, cyclin A-Cdk2 or cyclin D2-Cdk4 complexes inhibited their ability to phosphorylate a GST-Rb fusion product | – | – | –
recombinant mouse Kip1 with a C-terminal hexahistidine sequence (expressed in BL21(DE3) bacteria from pET21a) (from UniProt P46414 1-197) | – | – | – | 0.5 nM | 8 fold
